Laboratory results reported in the supplement of paper PMC9170038.

Assays:
MS2 coat protein [1] = test: apparent KD of MS2 coat protein, switch ON state; designed switch direction (-1 OFF switch, 1 ON switch): -1; higher = weaker reporter binding; details: FMN input: 0 or 200 uM; Eterna round: R93 (includes R88 designs)
How it was run: (§1)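 Apparent KD stands for the median, per design, of fits to normalised cluster binding curves. The curves came from titrating on-chip-transcribed RNA switches on Illumina sequencing clusters with SNAP-549-labelled MS2 coat protein, twofold from 0.7 or 1.5 nM to 3 µM. Buffer was 100 mM Tris-HCl pH 7.5, 80 mM KCl, 4 mM MgCl2, without or with constant ligand.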

MS2 coat protein [2] = test: apparent KD of MS2 coat protein, switch OFF state (with FMN for OFF switches, without FMN for ON switches); designed switch direction (-1 OFF switch, 1 ON switch): -1; higher = weaker reporter binding; details: FMN input: 0 or 200 uM; Eterna round: R93 (includes R88 designs)
How it was run: as §1

| Sequence | apparent KD of MS2 coat protein (MS2 coat protein [1]) [nM] | apparent KD of MS2 coat protein (MS2 coat protein [2]) [nM] |
| --- | --- | --- |
| AACAGUACAGGAUAUACAUGAGGAUCACCCAUGUGAGCAUUAAAAGGCGUACCUAAAAGUAGAAGGGUACUGGA [JL Maslow Revisted mod 22] | 24.8 | 66.7 |
| AAAGGAUCAGGAUAUGUGUGGAAAAAGUGUAUCCAAAAAAAACAUGAGGAUCACCCAUGUAGAAGGGAUCCAAA [Mod 2 of Normal (20/19) by Nando, Round 1] | 177 | 441 |
| AAGAAGCAAGGAUAUACUAAAGAAAUGAAAAGAAAUAAAGAACAUGAGGAUCACCCAUGUAGAAGGUGCAAGAA [Webenre] | 50.4 | 39.3 |
| AAAAAGUCAGGAUAUGUACGAAAAAAUAAAAAAAUAAAAGUACAGAAGGGACAUGAGGAUCACCCAUGUCAGGG [EX4 393: Minimal 5] | 67.5 | 118 |
| AAGGGACAUGAGGAUCACCCAUGUUAGGAUAUGCUAUGGAAAAUAAAAAUAAAACAUAGCAGAAGGAACAAAAA [Denovo 8] | 39.2 | 61.8 |
| AACUGGGCAGGAUAUACAUGAGGAUCACCCAUGUAAAGAAAAGAAAGAUCCGAGGAAAGUAGAAGGGCCUGGAA [Variant 4 of Mod 1 of Ex3 sub 3, by Tesla's Dusciple Round 1] | 55.6 | 91.3 |
| AAGAAGGUAGGAUAUACUAGGGCAACUAAUGCAAAGAUAGGACAUGAGGAUCACCCAUGUAGAAGGGCCAGAAA [JR_Exc002_Sub403] | 48 | 59.6 |
| ACCUGACAUGAGGAUCACCCAUGUCAGGAUAUGUACAUCAGGAAAAAAAAACUGAUGUACAGAAGGGACAAGGG [Design 6: Super Stable - A-U mutation 2] | 17.8 | 13.7 |
| AGGCGGGUAGGAUAUGCGUACUGACGGGAAAACUGAAUGGUACAUGAGGAUCACCCAUGUAGAAGGGCUCUGAA [Dora Explored 23 - Jieux - Exclusion 2] | 67.1 | 111 |
| CUCGUGUUAGGAUAUGGAUAGCCGUUUGACGAGCGAGGGCACUAGAAGGAACAUGAGGAUCACCCAUGUAAAAA [Velema] | 29.4 | 28.1 |
| AAAUAGUUAGGAUAUACAUGAGGAUCACCCAUGUGGACUUAUGGAGAAUAAUUUAAUGGUAGAAGGGACUAAAA [EX2 Malc#26] | 54.3 | 45.5 |
| AAGAAUGGAGGAUAUACAUGAGGAUCACCCAUGUAAAAGAAAGAAGGGAAAGAGAAAAGUAGAAGGCCAAAGAA [Khuinefertemre Taharqa] | 26.5 | 53.8 |
| GUGUACAGAGGAUAUAUAUGAGCUAGGAAACUAGCAAGAUCACAUGAGGAUCACCCAUGUAGAAGGCUGUACAC [Ex2: 735] | 108 | 796 |
| AAAAAGGCAGGAUAUACGAACAUGUCGAAAGACGUGAAGGGACAUGAGGAUCACCCAUGUAGAAGGGUCAAGAA [Mat - Exclusion 2 - JL mod - D76] | 90.8 | 91.9 |
| GAAAAGUCAGGAUAUACAGAUAAAAAAACGAAAAAAAAUCUGUAGAAGGGACAUGAGGAUCACCCAUGUAAAAG [Mat - Exclusion 4 - Mayanna - D101] | 47.3 | 33.2 |
| AAGAAGCUAGGAUAUACUAAAGAAAUGAAAAGAAAUAAAGAACAUGAGGAUCACCCAUGUAGAAGGAGCAAGAA [Djefare] | 42.3 | 18.9 |
| GAAAAUGGAGGAUAUACGUACAUGUCAAAAGACGUGAAGGGACAUGAGGAUCACCCAUGUAGAAGGCUAAAAAG [Mat - Exclusion 2 - JL mod - D96] | 101 | 15.4 |

| Sequence | apparent KD of MS2 coat protein (MS2 coat protein [1]) [nM] | apparent KD of MS2 coat protein (MS2 coat protein [2]) [nM] |
| --- | --- | --- |
| GGAAAACAUGAGGAUCACCCAUGUAAGGAUAUGCAAAGGAUAUAGAAGGAAAAAAAAAGCAGAAGGUACAAAGG [salish99-ex1-20] | 26.5 | 53.6 |
| AAAAAGUCAGGAUAUAGAAAAGGUCACGAAAGUGACAAAGGCUAGAAGGGACAUGAGGAUCACCCAUGUAAAAA [Mat - Mod of Eli] | 53.5 | 28.8 |
| AAAAAGGCAGGAUAUACAAAAAAAUUUUUAAAAAAAAAAAAACAUGAGGAUCACCCAUGUAGAAGGGCCAAAAA [Ex 2.1] | 52 | 43.3 |
| AAAAAACAUGAGGAUCACCCAUGUAAGGAUAUCAGAGAAUUAAAAAAAAAAAAAAAAAUGAGAAGGUACAAAAA [excaliber] | 31.7 | 19 |
| CUCUUGUGAGGAUAUCUAAGAAAAGAAGAGAAAGAAAAGAAAGAGAAGGCACAUGAGGAUCACCCAUGUAAGAA [EteRNA is fun!] | 29 | 56.1 |
| CCCAUGUCAGGAUAUCAGUAGUAAAAAAAAAAAAUUACUACUGAGAAGGGACAUGAGGAUCACCCAUGUCACUU [EX4 320: Super Stable 20] | 74.9 | 53.2 |
| AAAAAGAGAGGAUAUACAUGAGGAUCACCCAUGUGAAAGACGAAAAAAAGUCUAAAAUGUAGAAGGCUCAAAAA [65%, Moding Exclusion3-cac2, 13] | 23.1 | 89.7 |
| AGUGAGUCAGGAUAUUAGUGAAGAAUAAAAGAAAUAACAACUAAGAAGGGACAUGAGGAUCACCCAUGUACACA [May 58] | 26 | 20.9 |
| AAAACGCUAGGAUAUACGAAAAAAAAGGGAGAAAAAAAGGGACAUGAGGAUCACCCAUGUAGAAGGAGCAAAAA [Diamond 88] | 38.5 | 105 |
| AUCAUGUAAGGAUAUGUAAGAAAAGAAAAGAAAGAAAAGAAACAGAAGGUACAUGAGGAUCACCCAUGUAAGAA [EteRNA is fun!] | 26.5 | 34.5 |
| AGCUAGUCAGGAUAUACGAACAUGUCAAAAGACGUGAAAGAACAUGAGGAUCACCCAUGUAGAAGGGACUAGCA [Mat - Exclusion 2 - JL-Eli mod - D48] | 19.4 | 18 |
| CUCUUGUGAGGAUAUUCAAGAAAAGAAGAGAAAGAAAAGAAGAAGAAGGCACAUGAGGAUCACCCAUGUAAGAA [EteRNA is fun!] | 25 | 30.8 |
| AGGGUACAUGAGGAUCACCCAUGUUAGGAUAUACAAAAGAAAAGAAAAGAAAGAAGAAGUAGAAGGGACAAGAA [Teti] | 45.5 | 59.1 |
| CUAAAGCGAGGAUAUACAAUAAAAGGGAAUAAGGGAAAAAAACAUGAGGAUCACCCAUGUAGAAGGCGCCGAAA [Ex 2 #1] | 25.6 | 26.5 |
| AAAAAGUGAGGAUAUUCGGAUAGGAAAACGAAAACCUAUCCGAAGAAGGCACAUGAGGAUCACCCAUGUGAAAA [67% Ecls-II - Early G + late G segment 1] | 27.5 | 24.1 |
| AAGAAGGCAGGAUAUACUAAAGAAAUGAAAAGAAAUAAAGAACAUGAGGAUCACCCAUGUAGAAGGGCCAAGAA [Khakherewre] | 35.2 | 24.1 |
| AAAAAAGGAGGAUAUACGUACAUGUCAAAAGACGUGAAGGGACAUGAGGAUCACCCAUGUAGAAGGCUUAAAAA [JL Stem Breaker 6] | 47.7 | 18.1 |
